In patent US20260337278 (published 2026):
Substitutions are numbered along the chain they refer to. Where two headings read alike, the source gives them in different places. Values belong to the binder of their own block, whether it stands above or below them.

Legend:
Test in all cases: BLI
[1] = target: T1, EGFR (wild-type, His-tagged or biotinylated) (human, UniProt P00533)
EGFRvIII [2] = target: T2, EGFRvIII (human, UniProt P00533)
EGFRvIII [3] = target: T2, EGFRvIII; remark: listed apart in the source
EGFRvIII [4] = target: T2, EGFRvIII; remark: listed apart in the source
[5] = target: T1, EGFR (wild-type, His-tagged or …); remark: listed apart in the source

Kd [1]: 4.73 nM | Kd (EGFRvIII [2]): 0.839 nM
B1: SI-95X20 (antibody)
chain 1: not shown
chain 2: DIQMTQSPSSLSASVGDRVTITCRSSQNIVHSNGNTYLDWYQQTPGKAPKLLIYKVSNRFSGVPSRFSGSGSGTDFTFTISSLQPEDIATYYCFQYSHVPWTFGQGTKLQITRTVAAPSVFIFPPSDEQLKSGTASVVCLLNNFYPREAKVQWKVDNALQSGNSQESVTEQDSKDSTYSLSSTLTLSKADYEKHKVYACEVTHQGLSSPVTKSFNRGEC

Kd [1]: 5.01 nM | Kd (EGFRvIII [2]): 0.676 nM
B2: SI-95X19 (antibody)
chain 1: not shown
chain 2: B1 chain 2

Kd [1]: 6.1 nM | Kd (EGFRvIII [2]): 0.834 nM
B4: SI-95X22 (antibody)
chain 1: not shown
chain 2: B1 chain 2

Kd [1]: 5.56 nM | Kd (EGFRvIII [2]): 0.654 nM
B5: SI-95X21 (antibody)
chain 1: not shown
chain 2: B1 chain 2

Kd [1]: 6.02 nM | Kd (EGFRvIII [2]): 0.642 nM
B6: SI-95X17 (antibody)
chain 1: not shown
chain 2: B1 chain 2

Kd [1]: 6.17 nM | Kd (EGFRvIII [2]): 1.45 nM
B16: SI-95X23 (antibody)
chain 1: not shown
chain 2: DVQLQESGPSLVKPSQSLSLTCTVTGYSITSDFAWNWIRQFPGNKLEWMGYISYSGNTRYNPSLKSRISITRDTSKNQFFLQLNSVTIEDTATYYCVTAGRGFPYWGQGTLVTVSAGGGGSGGGGSGGGGSDILMTQSPSSMSVSLGDTVSITCHSSQDINSNIGWLQQRPGKSFKGLIYHGTNLDDEVPSRFSGSGSGADYSLTISSLESEDFADYYCVQYAQFPWTFGGGTKLEIKSGSGSGGGGGSGGGGSGGGGSDIQMTQSPSSLSASVGDRVTITCRSSQNIVHSNGNTYLDWYQQTPGKAPKLLIYKVSNRFSGVPSRFSGSGSGTDFTFTISSLQPEDIATYYCFQYSHVPWTFGQGTKLQITRTVAAPSVFIFPPSDEQLKSGTASVVCLLNNFYPREAKVQWKVDNALQSGNSQESVTEQDSKDSTYSLSSTLTLSKADYEKHKVYACEVTHQGLSSPVTKSFNRGEC

Kd [1]: 9.35 nM | Kd (EGFRvIII [2]): 0.281 nM
B17: SI-95X26 (antibody)
chain 1: not shown
chain 2: DILMTQSPSSMSVSLGDTVSITCHSSQDINSNIGWLQQRPGKSFKGLIYHGTNLDDEVPSRFSGSGSGADYSLTISSLESEDFADYYCVQYAQFPWTFGGGTKLEIKGGGGSGGGGSGGGGSDVQLQESGPSLVKPSQSLSLTCTVTGYSITSDFAWNWIRQFPGNKLEWMGYISYSGNTRYNPSLKSRISITRDTSKNQFFLQLNSVTIEDTATYYCVTAGRGFPYWGQGTLVTVSASGSGSGGGGGSGGGGSGGGGSDIQMTQSPSSLSASVGDRVTITCRSSQNIVHSNGNTYLDWYQQTPGKAPKLLIYKVSNRFSGVPSRFSGSGSGTDFTFTISSLQPEDIATYYCFQYSHVPWTFGQGTKLQITRTVAAPSVFIFPPSDEQLKSGTASVVCLLNNFYPREAKVQWKVDNALQSGNSQESVTEQDSKDSTYSLSSTLTLSKADYEKHKVYACEVTHQGLSSPVTKSFNRGEC

Kd (EGFRvIII [4]): 15.9 nM | binding result [5]: no binding
B18: SI-95X41 (antibody)
chain 1: not shown
chain 2: DILMTQSPSSMSVSLGDTVSITCHSSQDINSNIGWLQQRPGKSFKGLIYHGTNLDDEVPSRFSGSGSGADYSLTISSLESEDFADYYCVQYAQFPWTFGGGTKLEIKRTVAAPSVFIFPPSDEQLKSGTASVVCLLNNFYPREAKVQWKVDNALQSGNSQESVTEQDSKDSTYSLSSTLTLSKADYEKHKVYACEVTHQGLSSPVTKSFNRGEC

Kd (EGFRvIII [4]): 7.67 nM | binding result [5]: no binding
B19: SI-95X55 (antibody)
chain 1: not shown
chain 2: DIVMTQSPSSVSLSLGDRVTITCHSSQDINSNIGWLQQKPGKAFKGLIYHGTNLDDGVPSRFSGSGSGADYTLTISSLQAEDFATYYCVQYAQFPWTFGPGTKLEIKRTVAAPSVFIFPPSDEQLKSGTASVVCLLNNFYPREAKVQWKVDNALQSGNSQESVTEQDSKDSTYSLSSTLTLSKADYEKHKVYACEVTHQGLSSPVTKSFNRGEC

Second part, the binder before the results:

B3: SI-95X2 (antibody)
chain 1: not shown
chain 2: B1 chain 2
Kd [1]: 5.53 nM | Kd (EGFRvIII [2]): 1.15 nM

B7: ABT-806 V7 (antibody, V domains shown)
VH: QVQLQESGPSLVKPSQTLSLTCTVSGYSITSDFAWNWIRQFPGRKLEWMGYISYSGNTRYNPSLKSRFTISRDTSKNQFYLKLRSVTIADTAVYYCVTAGRGFPYWGQGTLVTVSS
VL: DIQMTQSPSSVSASVGDRVTITCHSSQDINSNIGWLQQKPGKAPKGLIYHGTNLDDGVPSRFSGSGSGADYTLTISSLQPEDFATYYCVQYAQFPWTFGQGTKVEIKR
Kd (EGFRvIII [3]): 37.8 nM

B8: ABT-806 V4 (antibody, V domains shown)
VH: B7 VH with S10G, T17S, F41A, R44K, K45G, M49V, K82Q, R84N, I88A, A89E
VL: B7 VL
Kd (EGFRvIII [3]): 23.2 nM

B9: ABT-806 V8 (antibody, V domains shown)
VH: B7 VH
VL: B7 VL with Q3V, V11L, A13V, V15P, Q79E, T85V
Kd (EGFRvIII [3]): 31.9 nM

B10: ABT-806 V5 (antibody, V domains shown)
VH: B7 VH with S10G, T17S, F41A, R44K, K45G, M49V, K82Q, R84N, I88A, A89E
VL: B7 VL with Q3V, V11L, A13V, V15P, Q79E, T85V
Kd (EGFRvIII [3]): 30.7 nM

B11: ABT-806 V2 (antibody, V domains shown)
VH: QVQLQESGPGLVKPSQSLSLTCTVSGYSITSDFAWNWIRQPPGKGLEWIGYISYSGNTRYNPSLKSRVTISRDTSKNQFSLQLNSVTAEDTAVYYCVTAGRGFPYWGQGTLVTVSS
VL: B7 VL with Q3V, V11L, A13V, V15P, Q79E, T85V
Kd (EGFRvIII [3]): 26.6 nM

B12: ABT-806 V3 (antibody, V domains shown)
VH: B11 VH
VL: B7 VL with Q3V, A13L, V15L, P44F, P80A, Q100P, V104L
Kd (EGFRvIII [3]): 15.4 nM

B13: ABT-806 V9 (antibody, V domains shown)
VH: B7 VH
VL: B7 VL with Q3V, A13L, V15L, P44F, P80A, Q100P, V104L
Kd (EGFRvIII [3]): 16.1 nM

B14: ABT-806 V1 (antibody, V domains shown)
VH: B11 VH
VL: B7 VL
Kd (EGFRvIII [3]): 29.5 nM

B15: ABT-806 V6 (antibody, V domains shown)
VH: B11 VH with P41A, I49V, V68F, S80Y
VL: B7 VL with Q3V, A13L, V15L, P44F, P80A, Q100P, V104L
Kd (EGFRvIII [3]): 18.4 nM
